# B1: CADM3102 scFv-hG4PE (Fc fusion)
# VH: QMQLVQSGAEVKKPGSSVKVSCKASGGTFSSYAISWVRQAPGQGLEWMGGIIPMSGTANYAQKFQGRVTITADESTSTAYMELSSLRSEDTAVYYCARVEESGWYDHYHGMDVWGQGTTVTVSS
# VL: DVVMTQSPLSLPVTPGEPASISCTSSQSLLYSNGFNYLDWYLQKPGQSPQLLIYLGSNRASGVPDRFSGSGSGTDFTLKISRVEAEDVGVYYCMQALTTHPTFGGGTKVDIK
# B2: iCADM3_3R1-L8 VHH-hG4PE(R409K) (Fc fusion, not shown: a dimerising Fc or GST)
# chain: QVQLVESGGGLVQPGGSLRLSCAASGRTFSNYARGWFRQAPGKEREFVAAIDYSGGSTNYADSAKGRFTISRDNAKNTVYLQMNSLKPGDTAVYYCAAPASRRPSWDADGYDYWGQGTQVTVSS
# B3: iCADM3_3R1-L10 VHH-hG4PE(R409K) (Fc fusion, not shown: a dimerising Fc or GST)
# chain: QVQLVESGGGLVQAGGSLRLSCAASGSIFSIHAMGWYRQAPGKQRELVATVTSGGSTNYADSVKGRFTISRDNAKNTVYLQMNSLKPEDTAVYYCNAETPYYSSTYYTNYWGQGTQVTVSS
# B4: CADM301 scFv-hG4PE (Fc fusion)
# VH: QVQLVQSGAEVRRPGTSVKVSCKASGYSFTSYDINWVRLATGQGLEWMGWMNPNTGDTGSPQKFQDRVTMTRDISTGTAYLELRGLKSEDTAIYYCARGFLVTAYTAEFFPHWGQGTLVTVSS
# VL: SYVLTQPPSVSVAPGKTARLTCGGNNIGSKSVHWYQQRPGQAPVLVINYDSDRPSGIPERFSGSNSENTATLTISRVEAGDEADYYCQVWDSGSDHVVFGGGTQLIIL
# B5: iCADM3_3R1-L5 VHH-hG4PE(R409K) (Fc fusion, not shown: a dimerising Fc or GST)
# chain: QVQLVESGGGLVQAGGSLRLSCAASGSIVSVNAMGWYRQAPGKQRELVATITSGGSTNYADSAKGRFTISRDNAKNTMYLQMNSLKPEDTAVYYCNGEFWSRRDTRPPGVVNYWGQGTQVTVSS
# B6: anti-AVM antibody (antibody, V domains shown)
# VH: EVQLVESGGGLVQPGRSLKLSCAASGFTFSNYAMAWVRRAPTKGLEWVASISNGGGNTYYRDSVKGRFTISRDDAKNTLYLQMDSLRSEDTATYYCARHGNYIYYGSFFDYWGQGVMVTVSS
# VL: QFVLSQPNSVSTNLGSTVKLSCKRSTGNIGSNYVSWYQQHEGRSPTTMIYRDDKRPDGVPDRFSGSIDRSSDSALLTINNVQTEDEADYFCQSYSSGINIFGGGTKLTVLG
# B7: iCADM3_3R1-L11 VHH-hG4PE(R409K) (Fc fusion, not shown: a dimerising Fc or GST)
# chain: QVQLVESGGGLVQAGGSLRLSCAASGSIFSFNAMGWYRQAPGKQRGLVAVITSGGYTNYADSVKGRFTITRDNAKNTVYLQMNSLKPEDTAVYYCNAEGVYSDYVIMNYWGQGTQVTVSS
# Biological target: monkey CADM3 (cynomolgus monkey)
# Assay: flow cytometry, 10 ug/mL, monkey CADM3/Expi293F vs parent Expi293F cells
# monkey CADM3 (cynomolgus monkey), sequence (Q8N126 25-398 S206N limits assumed, form in doubt): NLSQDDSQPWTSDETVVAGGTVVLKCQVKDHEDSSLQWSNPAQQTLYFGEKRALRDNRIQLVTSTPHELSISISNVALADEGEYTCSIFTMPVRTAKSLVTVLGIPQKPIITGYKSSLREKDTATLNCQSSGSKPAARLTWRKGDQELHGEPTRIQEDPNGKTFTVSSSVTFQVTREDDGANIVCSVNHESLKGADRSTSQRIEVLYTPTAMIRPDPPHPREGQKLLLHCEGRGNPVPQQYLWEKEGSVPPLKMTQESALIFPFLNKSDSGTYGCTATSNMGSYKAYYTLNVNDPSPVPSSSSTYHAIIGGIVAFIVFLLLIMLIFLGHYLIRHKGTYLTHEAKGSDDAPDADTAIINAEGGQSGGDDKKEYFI
row,Mean fluorescence intensity ratio,Binder
1,51.5,B1
2,6.91,B2
3,36.5,B3
4,5.72,B4
5,26.6,B5
6,1.02,B6
7,35.3,B7

# — patent US20210147541A1
